Data set [1] deals with T1, SacPox (Sulfolobus acidocaldarius, UniProt Q4J6Z8).
T1 construct: gene pte; recombinant in E. coli BL21(DE3)-pGro7/GroEL with CoCl2
As to the kind of experiment: p-nitrophenolate release, […] nm. Conditions: 50 mM HEPES pH 8, 150 mM NaCl, 0.2 mM CoCl2, 25°C, cobalt cofactor; for Km: no SDS. The class given is biochemical.

Data set [2] deals with T1, SacPox. Put plainly: phenyl acetate hydrolysis, […] nm. The class given is biochemical. Conditions: 50 mM HEPES pH 8, 150 mM NaCl, 0.2 mM CoCl2, 25°C; cobalt cofactor.
Data set [3] addresses T1, SacPox. The class given is biochemical. Conditions: 2.5 mM Bicine pH 8.3, 150 mM NaCl, 0.2 mM CoCl2, 0.5% DMSO, 25°C; cobalt cofactor.
For the next data set, the system named is CCCC1CCC(=O)O1. Put plainly: purified protein. The class given is biochemical, Sulfolobus acidocaldarius. Conditions: 2.5 mM Bicine pH 8.3, 150 mM NaCl, 0.2 mM CoCl2, 0.5% DMSO, 25°C, cobalt cofactor.
Another data set has as its system CCCCC1CCCC(=O)O1. Put plainly: purified protein. The class given is biochemical, Sulfolobus acidocaldarius. Conditions: 2.5 mM Bicine pH 8.3, 150 mM NaCl, 0.2 mM CoCl2, 0.5% DMSO, 25°C, cobalt cofactor.
Data set [4] relates to CCCCCC(=O)CC(=O)N[C@H]1CCOC1=O. As to the kind of experiment: purified protein. The format is biochemical, Sulfolobus acidocaldarius. Conditions: 2.5 mM Bicine pH 8.3, 150 mM NaCl, 0.2 mM CoCl2, 0.5% DMSO, 25°C, cobalt cofactor.
The test system of the next data set is CCCCCC1CCC(=O)O1. As to the kind of experiment: purified protein. The class given is biochemical, Sulfolobus acidocaldarius. Conditions: 2.5 mM Bicine pH 8.3, 150 mM NaCl, 0.2 mM CoCl2, 0.5% DMSO, 25°C, cobalt cofactor.
The next data set has as its system CCCCCCC1CCCC(=O)O1. As to the kind of experiment: purified protein. The class given is biochemical, Sulfolobus acidocaldarius. Conditions: 2.5 mM Bicine pH 8.3, 150 mM NaCl, 0.2 mM CoCl2, 0.5% DMSO, 25°C, cobalt cofactor.
Data set [5] relates to CCCCCCCC(=O)CC(=O)N[C@H]1CCOC1=O. As to the kind of experiment: purified protein. The format is biochemical, Sulfolobus acidocaldarius. Conditions: 2.5 mM Bicine pH 8.3, 150 mM NaCl, 0.2 mM CoCl2, 0.5% DMSO, 25°C, cobalt cofactor.
The next data set has as its system CCCCCCCC(=O)NC1CCOC1=O. As to the kind of experiment: purified protein. The format is biochemical, Sulfolobus acidocaldarius. Conditions: 2.5 mM Bicine pH 8.3, 150 mM NaCl, 0.2 mM CoCl2, 0.5% DMSO, 25°C, cobalt cofactor.
Another data set concerns CCCCCCCC1CCCC(=O)O1. As to the kind of experiment: purified protein. The format is biochemical, Sulfolobus acidocaldarius. Conditions: 2.5 mM Bicine pH 8.3, 150 mM NaCl, 0.2 mM CoCl2, 0.5% DMSO, 25°C, cobalt cofactor.
The subject of another data set is CCCCCCCCC1CCC(=O)O1. Put plainly: purified protein. The format is biochemical, Sulfolobus acidocaldarius. Conditions: 2.5 mM Bicine pH 8.3, 150 mM NaCl, 0.2 mM CoCl2, 0.5% DMSO, 25°C, cobalt cofactor.

Results on six compounds are retold here after PMC4068969, “SacPox from the thermoacidophilic crenarchaeon Sulfolobus acidocaldarius is a proficient lactonase” (BMC Research Notes, 2014).

Like-named read-outs stand apart in the source and are kept apart here.

As a reminder, the Km is the concentration of substrate that gives half-maximal velocity. With `COP(=O)(OC)Oc1ccc([N+](=O)[O-])cc1` [Methyl Paraoxon], the Km on SacPox [1] was 278 ± 40 µM.
Same read-out and setting: then `CCOP(=O)(OCC)Oc1ccc([N+](=O)[O-])cc1` [Paraoxon], with 434 ± 54 µM.
With `CC(=O)Oc1ccccc1` [Phenyl-acetate], the “K M (μM)” value at SacPox [2] is 8 181 ± 1750 μM.
`CC(=O)Oc1ccc([N+](=O)[O-])cc1` [pNP-acetate]: the “K M (μM)” value on SacPox [1] is listed as 2 107 ± 313 μM.
On to `O=C1CCCCCO1` [ϵ caprolactone], for which the “K M (μM)” value at SacPox [3] was 1 031 ± 83 μM.
Usually kcat stands for the maximal rate divided by the concentration of active sites. The term kcat/Km denotes the turnover number divided by the Michaelis constant. Turning to “SacPox (Sulfolobus acidocaldarius DSM 639)”, the Km with CCCC1CCC(=O)O1 is 388 ± 62 µM; in the data set on CCCCC1CCCC(=O)O1 it was 348 ± 53 µM; in data set [4], 836 ± 178 µM; in the data set with CCCCCC1CCC(=O)O1, 109 ± 19 µM; in the data set with CCCCCCC1CCCC(=O)O1, 168 ± 37 µM; in [5] it was 213 ± 33 µM. Moreover, the Km with CCCCCCCC(=O)NC1CCOC1=O was 178 ± 26 µM; in the data set on CCCCCCCC1CCCC(=O)O1, 185 ± 27 µM; in the data set with CCCCCCCCC1CCC(=O)O1, 242 ± 60 µM. The kcat in the data set on CCCC1CCC(=O)O1 is 10.2 ± 0.5 s⁻¹; in the data set on CCCCC1CCCC(=O)O1, 4.55 ± 0.21 s⁻¹; in [4], 0.89 ± 0.07 s⁻¹; in the data set with CCCCCC1CCC(=O)O1, 2.64 ± 0.07 s⁻¹; in the data set with CCCCCCC1CCCC(=O)O1, 1.05 ± 0.05 s⁻¹; in data set [5], 1.03 ± 0.04 s⁻¹. Moreover, the results for the kcat in the data set on CCCCCCCC(=O)NC1CCOC1=O, with CCCCCCCC1CCCC(=O)O1 and with CCCCCCCCC1CCC(=O)O1 were 0.94 ± 0.02 s⁻¹, 3.34 ± 0.07 s⁻¹ and 0.53 ± 0.03 s⁻¹, respectively. In addition, the kcat/Km in the data set on CCCC1CCC(=O)O1 amounted to 26400 ± 4400 M⁻¹ s⁻¹; in the data set with CCCCC1CCCC(=O)O1 it was 13100 ± 2100 M⁻¹ s⁻¹; in [4], 1070 ± 250 M⁻¹ s⁻¹; in the data set with CCCCCC1CCC(=O)O1, 24400 ± 4400 M⁻¹ s⁻¹; in the data set with CCCCCCC1CCCC(=O)O1 it was 6220 ± 1400 M⁻¹ s⁻¹; in data set [5] it was 4880 ± 770 M⁻¹ s⁻¹. Further, the kcat/Km with CCCCCCCC(=O)NC1CCOC1=O was 5280 ± 770 M⁻¹ s⁻¹; with CCCCCCCC1CCCC(=O)O1, 18100 ± 2700 M⁻¹ s⁻¹; in the data set on CCCCCCCCC1CCC(=O)O1, 2210 ± 570 M⁻¹ s⁻¹.
